In patent US20230391872A1 (ANAPTYSBIO, published 2023):

How the values were obtained:
[1] = molecular target: T1, human BTLA on cells (stably transfected 293c18 cells; human peripheral blood T and B cells) (human, UniProt Q7Z6A9 31-289); assay: flow cytometry, DyLight 650-labeled 6G3 IgG4 on human peripheral blood CD8+ T cells
T1 construct: whole, on cells; the cells are named under assay; also called cell surface BTLA; full-length human BTLA
Description: PBMCs were washed and incubated at 2×10⁷ cells/ml in FACS buffer (PBS, 1% BSA, 0.02% sodium azide) with Human BD Fc Block (2.5 μg/1×10⁶ cells, BD Biosciences) and LIVE/DEAD® Fixable Yellow Dead Cell Stain (30 μl, ThermoFisher Scientific) for 10 minutes on ice. Cells were washed once in FACS buffer, resuspended in FACS buffer at 1×10⁷ cells/ml and the following phenotyping antibodies added: Alexa Fluor 488-anti-human CD3E clone SK7, Brilliant Violet 421-anti-human CD4 clone OKT4, Brilliant Violet 785-anti-human CD8 clone SK1, and Brilliant Violet 570-anti-human CD20 clone 2H7 (50 μl each; all from BioLegend, Inc.). […] Samples were washed twice in FACS buffer, resuspended in 150 μl/well FACS buffer, and analyzed for fluorescence on a NovoCyte Flow Cytometer (ACEA Biosciences, Inc.). Data were analyzed using NovoExpress Software (ACEA Biosciences, Inc.). Median fluorescence intensities of anti-BTLA or isotype staining on gated CD4⁺ T cells (FIG. 4), CD8⁺ T cells (FIG. 4), or CD20⁺ B cells (FIG. 4) were graphed and curves fit with log(agonist) vs. response (three parameters) least squares fit for EC₅₀ calculation in GraphPad Prism (GraphPad Software, Inc.).

[2] = molecular target: T2, cynomolgus monkey BTLA ECD-his (monomeric cynomolgus monkey BTLA-his) (cynomolgus monkey, UniProt A0A2K5W7M7 31-157); assay: SPR, Biacore T200, antibody captured on anti-human IgG, monomeric cynomolgus monkey BTLA-his as analyte, 25 °C, 1:1 model; 6G3 IgG4 (APE10840.05) captured on the chip; cynomolgus BTLA-his analyte
T2 construct: extracellular domain; also called cynomolgus monkey BTLA extracellular domain
T2 sequence: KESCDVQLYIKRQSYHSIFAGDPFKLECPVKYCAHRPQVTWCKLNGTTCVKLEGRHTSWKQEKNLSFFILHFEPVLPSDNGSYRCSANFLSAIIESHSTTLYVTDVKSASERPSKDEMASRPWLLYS
Description: Surface plasmon resonance (SPR) analyses were carried out using a Biacore T200 (GE Healthcare Life Sciences). Kinetic constants were determined using a 1:1 binding model in the Biacore T200 Evaluation Software to calculate on- and off-rates (kₐ and kd, respectively), and dissociation constants as a measure of overall affinity (KD). Anti-human IgG (GE Healthcare Life Sciences) was immobilized on a CMS chip using EDC-activated amine coupling chemistry (420 seconds contact at a flow rate of 10 μl/min). Antibodies (APE10585.04 6G3 IgG1 and APE10840.05 6G3 IgG4), each at 0.5 μg/m1) were captured in a 60 second contact with the flow cell using a flow rate of 10 μl/min. Monomeric human BTLA-his or cynomolgus monkey BTLA-his at 60 nM, 20 nM, 6.7 nM and 2.2 nM concentrations was flowed over captured antibody (480 seconds association, 1800 seconds dissociation). Runs were at 25° C. and used buffer containing 10 mM HEPES, pH 7.6, 150 mM NaCl, 3 mM EDTA, 0.05% polysorbate 20 (HBS-EP+, pH 7.6; Teknova) for the mobile phase and all dilutions. At the end of each cycle, bound antigen was removed by regeneration with two successive exposures (60 seconds and 90 seconds) to 3 M MgCl2 (30 μl/min). Sensorgrams and binding constants corresponding to the experiment are shown in FIG. 1 (human BTLA) and FIG. 1 (cynomolgus monkey BTLA). […]

B1: 6G3 IgG4 anti-BTLA antibody (APE10840 / APE12839 / APE13308) (antibody, V domains shown)
VH: QVQLVQSGAEVKKPGSSVKVSCKASGYVFSTSWMNWVRQAPGQGLEWMGRIYPGDADTNYVGKFKGRVTITADKSTTTAYMELSSLRSEDTAVYFCAKSGTFNFGNYRWYFDVWGKGTTVTVSS
VL: AIQLTQSPSSLSASVGDRVTITCRVSENIYSHLAWYQQKPGKAPKLLIYAATNLALGVPSRFSGSGSGTDYTLTISSLQPEDFATYYCQLFWGPPLTFGGGTKVEIKR
notes: Humanized antibody from a mouse hybridoma, tested as human IgG4 (detected with anti-human kappa); Some assays used labelled lots (DyLight 650, AF647, biotin, DyL488); also called 6G3 antibody; APE10840.03
[1]
  EC50: ~3.2 nM
[2]
  Kd: ~11 nM
